Data: US20200079833A1 (AstraZeneca / MedImmune, published 2020)
Non-standard residues stand in square brackets, D forms with d. No end group written: not given here. αMeF = C[C@](N)(Cc1ccccc1)C(=O)O; αMeK = C[C@](N)(CCCCN)C(=O)O; αMeS = C[C@](N)(CO)C(=O)O; Aib = CC(C)(N)C(=O)O

T1: glucose-dependent insulinotropic peptide (gastric inhibitory polypeptide) receptor (human, UniProt P48546 22-466)
T1 sequence (looked up): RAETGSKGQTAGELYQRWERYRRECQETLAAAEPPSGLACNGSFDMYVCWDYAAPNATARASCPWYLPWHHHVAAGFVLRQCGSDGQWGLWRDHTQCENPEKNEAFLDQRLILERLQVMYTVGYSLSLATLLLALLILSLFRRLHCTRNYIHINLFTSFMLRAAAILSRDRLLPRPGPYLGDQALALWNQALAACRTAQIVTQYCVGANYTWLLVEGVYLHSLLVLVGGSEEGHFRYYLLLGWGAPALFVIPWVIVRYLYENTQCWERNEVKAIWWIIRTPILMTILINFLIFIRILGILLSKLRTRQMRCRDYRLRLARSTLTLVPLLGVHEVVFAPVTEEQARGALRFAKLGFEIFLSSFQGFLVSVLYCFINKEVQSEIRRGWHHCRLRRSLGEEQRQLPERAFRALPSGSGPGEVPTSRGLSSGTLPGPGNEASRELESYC


Columns and labels:
Assay in all cases: cell-based or functional assay
[1] = target: GLP-1 receptor (human, UniProt P43220 24-463)
[2] = target: glucagon receptor (human, UniProt P47871 26-477)
Sequence of glucagon receptor (P47871 26-477): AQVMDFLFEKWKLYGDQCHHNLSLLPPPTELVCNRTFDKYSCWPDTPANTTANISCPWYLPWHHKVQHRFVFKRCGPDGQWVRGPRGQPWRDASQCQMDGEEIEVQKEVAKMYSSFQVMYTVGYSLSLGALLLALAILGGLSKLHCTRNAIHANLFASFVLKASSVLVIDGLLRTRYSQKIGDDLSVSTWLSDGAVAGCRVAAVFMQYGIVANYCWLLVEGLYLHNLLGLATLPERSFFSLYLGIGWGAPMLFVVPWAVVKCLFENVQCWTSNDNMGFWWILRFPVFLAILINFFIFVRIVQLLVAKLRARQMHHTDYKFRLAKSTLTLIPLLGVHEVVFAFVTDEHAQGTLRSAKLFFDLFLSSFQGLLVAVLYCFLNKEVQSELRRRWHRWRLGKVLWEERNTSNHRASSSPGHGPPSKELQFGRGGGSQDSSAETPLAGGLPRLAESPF

[3] = target: T1, glucose-dependent insulinotropic …

Row | Binder | Primary assay EC50 (cAMP), Mean pM GLP-1R [1] | Primary assay EC50 (cAMP), n1 [1] | Primary assay EC50 (cAMP), n2 [1] | Primary assay EC50 (cAMP), n1 [2] | Primary assay EC50 (cAMP), n2 [2] | Primary assay EC50 (cAMP), n1 [3] | Primary assay EC50 (cAMP), n2 [3]
1 | HXEGTFTSDVSSYLEGQAAKEFIAWLVKGRK (Aib 2; K(ε-γE-Palmitoyl) after R30; C-terminal amide) [SEQ ID NO 5] | 6.5 pM | 0.0075 nM | 0.0055 nM | 81 nM | 81 nM | 81 nM | 81 nM
2 | H[Aib]EGTFT[Aib]DV[Aib]SYLEGQAAKEFIAWLVKGR-NH2 (N-terminus assumed; SMILES CC[C@H](C)[C@H](NC(=O)[C@H](Cc1ccccc1)NC(=O)[C@H](CCC(=O)O)NC(=O)[C@H](CCCCN)NC(=O)[C@H](C)NC(=O)[C@H](C)NC(=O)[C@H](CCC(N)=O)NC(=O)CNC(=O)[C@H](CCC(=O)O)NC(=O)[C@H](CC(C)C)NC(=O)[C@H](Cc1ccc(O)cc1)NC(=O)[C@H](CO)NC(=O)C(C)(C)NC(=O)[C@@H](NC(=O)[C@H](CC(=O)O)NC(=O)C(C)(C)NC(=O)[C@@H](NC(=O)[C@H](Cc1ccccc1)NC(=O)[C@@H](NC(=O)CNC(=O)[C@H](CCC(=O)O)NC(=O)C(C)(C)NC(=O)[C@@H](N)Cc1c[nH]cn1)[C@@H](C)O)[C@@H](C)O)C(C)C)C(=O)N[C@@H](C)C(=O)N[C@@H](Cc1c[nH]c2ccccc12)C(=O)N[C@@H](CC(C)C)C(=O)N[C@H](C(=O)N[C@@H](CCCCN)C(=O)NCC(=O)N[C@@H](CCCNC(=N)N)C(N)=O)C(C)C) [SEQ ID NO 24] | 5600 pM | 3.3 nM | 7.9 nM | 740 nM | 740 nM | 740 nM | 740 nM
3 | HXEGTFTSDVXSYLEGQAAKEFIAWLVKGR (Aib 2; Aib 11; C-terminal amide) [SEQ ID NO 22] | 118 pM | 0.12 nM | 0.12 nM | 390 nM | 240 nM | 480 nM | 480 nM
4 | HXEGTFTXDVSSYLEGQAAKEFIAWLVKGR (Aib 2; Aib 8; C-terminal amide) [SEQ ID NO 20] | 13400 pM | 15 nM | 12 nM | 290 nM | 290 nM | 290 nM | 290 nM
5 | H[Aib]EGS[αMeF]T[αMeS]DV[αMeS]S[αMeF]LEGEAA[αMeK]E[αMeF]IA[αMeF]VV[αMeK]GG-NH2 (N-terminus assumed; SMILES CC[C@H](C)[C@H](NC(=O)[C@](C)(Cc1ccccc1)NC(=O)[C@H](CCC(=O)O)NC(=O)[C@](C)(CCCCN)NC(=O)[C@H](C)NC(=O)[C@H](C)NC(=O)[C@H](CCC(=O)O)NC(=O)CNC(=O)[C@H](CCC(=O)O)NC(=O)[C@H](CC(C)C)NC(=O)[C@](C)(Cc1ccccc1)NC(=O)[C@H](CO)NC(=O)[C@](C)(CO)NC(=O)[C@@H](NC(=O)[C@H](CC(=O)O)NC(=O)[C@](C)(CO)NC(=O)[C@@H](NC(=O)[C@](C)(Cc1ccccc1)NC(=O)[C@H](CO)NC(=O)CNC(=O)[C@H](CCC(=O)O)NC(=O)C(C)(C)NC(=O)[C@@H](N)Cc1c[nH]cn1)[C@@H](C)O)C(C)C)C(=O)N[C@@H](C)C(=O)N[C@@](C)(Cc1ccccc1)C(=O)N[C@H](C(=O)N[C@H](C(=O)N[C@@](C)(CCCCN)C(=O)NCC(=O)NCC(N)=O)C(C)C)C(C)C) [SEQ ID NO 18] | 4940 pM | 4.1 nM | 5.8 nM | 100 nM | 100 nM | 100 nM | 100 nM

The remaining lines, values ahead:

Row | Primary assay EC50 (cAMP), Mean pM GLP-1R [1] | Primary assay EC50 (cAMP), n1 [1] | Primary assay EC50 (cAMP), n2 [1] | Primary assay EC50 (cAMP), n1 [2] | Primary assay EC50 (cAMP), n2 [2] | Primary assay EC50 (cAMP), n1 [3] | Primary assay EC50 (cAMP), n2 [3] | Binder
6 | 0.2 pM | 0.00025 nM | 0.00024 nM | 31 nM | 31 nM | 31 nM | 31 nM | H[Aib]EGS[αMeF]TSDV[αMeS]S[αMeF]LEGEAA[αMeK]E[αMeF]IA[αMeF]VV[αMeK]GG-NH2 (N-terminus assumed; SMILES CC[C@H](C)[C@H](NC(=O)[C@](C)(Cc1ccccc1)NC(=O)[C@H](CCC(=O)O)NC(=O)[C@](C)(CCCCN)NC(=O)[C@H](C)NC(=O)[C@H](C)NC(=O)[C@H](CCC(=O)O)NC(=O)CNC(=O)[C@H](CCC(=O)O)NC(=O)[C@H](CC(C)C)NC(=O)[C@](C)(Cc1ccccc1)NC(=O)[C@H](CO)NC(=O)[C@](C)(CO)NC(=O)[C@@H](NC(=O)[C@H](CC(=O)O)NC(=O)[C@H](CO)NC(=O)[C@@H](NC(=O)[C@](C)(Cc1ccccc1)NC(=O)[C@H](CO)NC(=O)CNC(=O)[C@H](CCC(=O)O)NC(=O)C(C)(C)NC(=O)[C@@H](N)Cc1c[nH]cn1)[C@@H](C)O)C(C)C)C(=O)N[C@@H](C)C(=O)N[C@@](C)(Cc1ccccc1)C(=O)N[C@H](C(=O)N[C@H](C(=O)N[C@@](C)(CCCCN)C(=O)NCC(=O)NCC(N)=O)C(C)C)C(C)C) [SEQ ID NO 17]
7 | 123 pM | 0.099 nM | 0.15 nM | 100 nM | 30 nM | 100 nM | 100 nM | H[Aib]EGS[αMeF]TADV[αMeS]S[αMeF]LEGEAA[αMeK]E[αMeF]IA[αMeF]VV[αMeK]GG-NH2 (N-terminus assumed; SMILES CC[C@H](C)[C@H](NC(=O)[C@](C)(Cc1ccccc1)NC(=O)[C@H](CCC(=O)O)NC(=O)[C@](C)(CCCCN)NC(=O)[C@H](C)NC(=O)[C@H](C)NC(=O)[C@H](CCC(=O)O)NC(=O)CNC(=O)[C@H](CCC(=O)O)NC(=O)[C@H](CC(C)C)NC(=O)[C@](C)(Cc1ccccc1)NC(=O)[C@H](CO)NC(=O)[C@](C)(CO)NC(=O)[C@@H](NC(=O)[C@H](CC(=O)O)NC(=O)[C@H](C)NC(=O)[C@@H](NC(=O)[C@](C)(Cc1ccccc1)NC(=O)[C@H](CO)NC(=O)CNC(=O)[C@H](CCC(=O)O)NC(=O)C(C)(C)NC(=O)[C@@H](N)Cc1c[nH]cn1)[C@@H](C)O)C(C)C)C(=O)N[C@@H](C)C(=O)N[C@@](C)(Cc1ccccc1)C(=O)N[C@H](C(=O)N[C@H](C(=O)N[C@@](C)(CCCCN)C(=O)NCC(=O)NCC(N)=O)C(C)C)C(C)C) [SEQ ID NO 26]
8 | 544 pM | 0.5 nM | 0.59 nM | 100 nM | 22 nM | 100 nM | 100 nM | H[Aib]EGS[αMeF]TGDV[αMeS]S[αMeF]LEGEAA[αMeK]E[αMeF]IA[αMeF]VV[αMeK]GG-NH2 (N-terminus assumed; SMILES CC[C@H](C)[C@H](NC(=O)[C@](C)(Cc1ccccc1)NC(=O)[C@H](CCC(=O)O)NC(=O)[C@](C)(CCCCN)NC(=O)[C@H](C)NC(=O)[C@H](C)NC(=O)[C@H](CCC(=O)O)NC(=O)CNC(=O)[C@H](CCC(=O)O)NC(=O)[C@H](CC(C)C)NC(=O)[C@](C)(Cc1ccccc1)NC(=O)[C@H](CO)NC(=O)[C@](C)(CO)NC(=O)[C@@H](NC(=O)[C@H](CC(=O)O)NC(=O)CNC(=O)[C@@H](NC(=O)[C@](C)(Cc1ccccc1)NC(=O)[C@H](CO)NC(=O)CNC(=O)[C@H](CCC(=O)O)NC(=O)C(C)(C)NC(=O)[C@@H](N)Cc1c[nH]cn1)[C@@H](C)O)C(C)C)C(=O)N[C@@H](C)C(=O)N[C@@](C)(Cc1ccccc1)C(=O)N[C@H](C(=O)N[C@H](C(=O)N[C@@](C)(CCCCN)C(=O)NCC(=O)NCC(N)=O)C(C)C)C(C)C) [SEQ ID NO 25]
9 | 446 pM | 0.42 nM | 0.48 nM | 100 nM | 40 nM | 100 nM | 100 nM | H[Aib]EGS[αMeF]TDDV[αMeS]S[αMeF]LEGEAA[αMeK]E[αMeF]IA[αMeF]VV[αMeK]GG-NH2 (N-terminus assumed; SMILES CC[C@H](C)[C@H](NC(=O)[C@](C)(Cc1ccccc1)NC(=O)[C@H](CCC(=O)O)NC(=O)[C@](C)(CCCCN)NC(=O)[C@H](C)NC(=O)[C@H](C)NC(=O)[C@H](CCC(=O)O)NC(=O)CNC(=O)[C@H](CCC(=O)O)NC(=O)[C@H](CC(C)C)NC(=O)[C@](C)(Cc1ccccc1)NC(=O)[C@H](CO)NC(=O)[C@](C)(CO)NC(=O)[C@@H](NC(=O)[C@H](CC(=O)O)NC(=O)[C@H](CC(=O)O)NC(=O)[C@@H](NC(=O)[C@](C)(Cc1ccccc1)NC(=O)[C@H](CO)NC(=O)CNC(=O)[C@H](CCC(=O)O)NC(=O)C(C)(C)NC(=O)[C@@H](N)Cc1c[nH]cn1)[C@@H](C)O)C(C)C)C(=O)N[C@@H](C)C(=O)N[C@@](C)(Cc1ccccc1)C(=O)N[C@H](C(=O)N[C@H](C(=O)N[C@@](C)(CCCCN)C(=O)NCC(=O)NCC(N)=O)C(C)C)C(C)C) [SEQ ID NO 27]
